Experimental findings from patent publication US20240424129A1, “RECOMBINANT FUSION ANTIBODY, AND ANTIBODY-DRUG CONJUGATE AND USE THEREOF” (SUN YAT-SEN UNIVERSITY, priority 2021, published 2024) are described below.

Non-standard residues stand in square brackets, D forms with d. Residues, ends and D or L forms follow the SMILES beside them. Dolaproine = CO[C@@H]([C@@H]1CCCN1)[C@@H](C)C(=O)O; Dil = CC[C@H](C)[C@H](NC)[C@@H](CC(=O)O)OC; NMeV = CN[C@H](C(=O)O)C(C)C

Format in all cases: cell-based, human
For one series, the system named is SKOV3 cells. Description: In-vitro cytotoxicity, CCK8 cell viability. To be noted: SKOV3, 48 h, CCK8, mean n=3; Table 9. Here is the method: (§1) In this example, human breast cancer cell line SKBR3 with high expression of HER2 and human ovarian cancer cell line SKOV3 with high expression of HER2 were chosen to evaluate the ability of the recombinant-fusion-antibody-drug conjugates to inhibit the growth of cancer cells. The recombinant-fusion-antibody-drug conjugates of different concentrations were added to a 96-well plate seeded with SKBR3 or SKOV3 cells. After treatment for 48 h, the viability of cells was calculated using a CCK8 kit.
(§2) SKBR3 and SKOV3 cells were chosen to evaluate the ability of the recombinant-fusion-full-length-antibody-drug conjugates to inhibit the growth of cancer cells. […] The half-maximal inhibitory concentration IC50 was calculated.

The subject of a further series is MDA-MB-231 cells. Nature of the series: In-vitro cytotoxicity, HER2-negative negative control. To be noted: MDA-MB-231, FIG. 15. The procedure:
as §1
In addition, in this example, the HER2-negative MDA-MB-231 cells were chosen as a negative control to compare the ability of fused VHH7-MMAF, fused VHH8-MMAF, VHH0-MMAF, VHH0, and MMAF to inhibit the growth of cancer cells.

Series [1] relates to SKBR3 cells. Description: In-vitro cytotoxicity, CCK8 cell viability. To be noted: SKBR3, 48 h; for IC50: CCK8, mean n=3. Here is the method:
as §1
Cell viability was measured using different concentrations of MMAF, VHH0-MMAF, or different recombinant-fusion-nanobody-drug conjugates (fused VHH1-MMAF to fused VHH26-MMAF). The half-maximal inhibitory concentration IC50 was calculated (FIGS. 14A-14C, and Table 7). FIGS. 14A, 14B and 14C respectively show the viability of SKBR3 cells treated with the recombinant-fusion-nanobody-drug conjugates, including fused VHH1-MMAF to fused VHH6-MMAF, fused VHH7-MMAF to fused VHH22-MMAF, and fused VHH23-MMAF to fused VHH26-MMAF. […] Data are expressed as the mean (n=3).
as §2

Series [2] deals with SKBR3 cells. Description: Internalization of TAMRA-labeled recombinant fusion antibodies by flow cytometry. To be noted: 2 μM, 6 h, acid wash, compared with non-fused VHH0. (Flow cytometry measures light scatter and fluorescence of single cells or particles in a stream.)
Protocol: The recombinant fusion antibody was labeled a fluorescent molecule and the internalization activity of the labeled antibody was evaluated by flow cytometry.
The procedure included the following steps: First, 5 mM tris (2-carboxyethyl) phosphine (TCEP; Thermo Fisher Scientific) was added to reduce the sulfhydryl group of VHH0 and fused VHH1-VHH26 respectively for approximately 30 min at room temperature, then TCEP was removed by buffer-exchanging with PBS containing 1 mM ethylenediaminetetraacetic acid (EDTA). Next, 2 eq of Maleimide-PEG3-TAMRA was added to the antibody solution and the resulting solution was incubated at 4° C. for 2 h. Lastly, the excess small molecules were removed by buffer-exchanging to obtain TAMRA-labeled VHH0 and fused VHH1-VHH26.
In this example, SKBR3, a human breast cancer cell line with a high expression level of HER2, was used as a model system. […] SKBR3 cells were incubated with TAMRA-labeled antibodies for 6 h, and subsequently washed with acid to remove bound antibodies on the cell membrane, and the fluorescence intensity was analyzed by flow cytometry.
Series [3] has as its system SKBR3 cells. Description: Colocalization of recombinant fusion antibodies with lysosomes by confocal laser scanning microscopy. Particulars: TAMRA-labeled, 4 h, SKBR3, LysoTracker Green; compared with non-fused VHH0. The text has this: Confocal laser scanning microscope (CLSM) was used to analyze the colocalization of the recombinant fusion antibodies with the lysosome. The antibody-drug conjugate would be transported and processed in the endocytotic pathway as follows: once the antibody-drug conjugate binds to the cell-surface tumor antigen, it is internalized into endosomes, which subsequently mature and fuse with lysosomes. In the lysosomes, the acidic environment and specific proteases (e.g., cathepsin B) degrade the ADC, thus leading to the release of the drug. The free drug traverses the lysosomal membrane, reaches the cytosol and binds to its target, such as microtubule or DNA, thus ultimately triggering cell death. Therefore, the efficacy of an antibody-drug conjugate relies on its internalization and lysosomal trafficking.
In this example, SKBR3 cells were treated with TAMRA-labeled antibodies, including VHH0, fused VHH1-VHH26, mAb0, or fused mAb1-mAb3, for 4 h. The nuclei of SKBR cells were stained by Hoechst 33342 and the lysosomes of cells were stained by LysoTracker Green. The lysosome-trafficking activity of VHH0, fused VHH1-VHH26, mAb0, and fused mAb1-mAb3 was evaluated by confocal laser scanning microscopy. All images were presented under identical conditions. For quantitative analysis, the same threshold value was set for all images.

A word on the IC50: it is the concentration that gives 50% inhibition. A low value points to higher potency. For the molecule `CC[C@H](C)[C@@H]([C@@H](CC(=O)N1CCC[C@H]1[C@H](OC)[C@@H](C)C(=O)N[C@@H](Cc1ccccc1)C(=O)O)OC)N(C)C(=O)[C@@H](NC(=O)[C@@H](NC)C(C)C)C(C)C` [MMAF, monomethyl auristatin F, reference compound] (H-[NMeV]V[Dil][Dolaproine]F-OH), the IC50 in the series with SKOV3 cells stood at 37.4 nM; with SKBR3 cells [1] (Table 7), 53.2 nM; in the series with SKBR3 cells [1] (Table 8), 37.4 nM. In addition, in the series with MDA-MB-231 cells, the “cytotoxicity in HER2-negative cells” value is “significant cell death”. Moreover, in the series on SKBR3 cells [1] (CCK8), the maximal killing result is recorded as “about 50%”.

B1: VHH0: non-fused anti-HER2 nanobody VHH-S84C-His6, SEQ ID NO: 32 (protein)
VHH: EVQLVESGGGLVQAGGSLRLSCAASGITFSINTMGWYRQAPGKQRELVALISSIGDTYYADSVKGRFTISRDNAKNTVYLQMNCLKPEDTAVYYCKRFRTAAQGTDYWGQGTQVTVSSHHHHHH
modifications: His6 tag
Take B1: the “cytotoxicity in HER2-negative cells” value in the series on MDA-MB-231 cells is on record as “none of the substances are cytotoxic”. In addition, in the series on SKBR3 cells [1] (CCK8), the “viability of the treated cells” value was “approximately 100%”.

B2: VHH0-MMAF (conjugate)
VHH: EVQLVESGGGLVQAGGSLRLSCAASGITFSINTMGWYRQAPGKQRELVALISSIGDTYYADSVKGRFTISRDNAKNTVYLQMNCLKPEDTAVYYCKRFRTAAQGTDYWGQGTQVTVSSHHHHHH
Consider B2, for which, in the series with MDA-MB-231 cells, the “cytotoxicity in HER2-negative cells” value was “none of the substances are cytotoxic”. Moreover, the maximal killing result in the series on SKBR3 cells [1] (CCK8) is listed as “about 50%”. Further, the IC50 in the series on SKBR3 cells [1] (Table 7) amounted to 1.57 nM.

B3: Fused VHH7: anti-HER2 nanobody fused with lysosome-targeting peptide P7, SEQ ID NO: 39 (protein)
chain: EVQLVESGGGLVQAGGSLRLSCAASGITFSINTMGWYRQAPGKQRELVALISSIGDTYYADSVKGRFTISRDNAKNTVYLQMNCLKPEDTAVYYCKRFRTAAQGTDYWGQGTQVTVSSHHHHHHLPETGGGSDEDLLHI
In the case of B3, the “internalization ability of nanobodies (mean cell fluorescence)” value in the series with SKBR3 cells [2] was “no significant difference in the internalization ability between fused VHH7 and fused VHH8”. For the same molecule, the “colocalization of nanobodies with lysosomes / lysosomal trafficking” value in the series with SKBR3 cells [3] is given as “No significant difference in lysosomal trafficking”.

B4: Fused VHH7-MMAF (conjugate)
VHH: EVQLVESGGGLVQAGGSLRLSCAASGITFSINTMGWYRQAPGKQRELVALISSIGDTYYADSVKGRFTISRDNAKNTVYLQMNCLKPEDTAVYYCKRFRTAAQGTDYWGQGTQVTVSSHHHHHHLPETGGGSDEDLLHI
Consider B4, for which the “cytotoxicity in HER2-negative cells” value with MDA-MB-231 cells is on record as “none of the substances are cytotoxic”. In the series with SKBR3 cells [1] (Table 7), this molecule displayed an IC50 of 0.336 nM.

B5: Fused VHH2-MMAF (conjugate)
VHH: EVQLVESGGGLVQAGGSLRLSCAASGITFSINTMGWYRQAPGKQRELVALISSIGDTYYADSVKGRFTISRDNAKNTVYLQMNCLKPEDTAVYYCKRFRTAAQGTDYWGQGTQVTVSSHHHHHHLPETGGGRRRASVSLLDDELMSL
Regarding B5, the half-maximal inhibitory concentration (IC50) in the series on SKBR3 cells [1] (Table 7) is 0.126 nM.

B6: Fused VHH1-MMAF (conjugate)
VHH: EVQLVESGGGLVQAGGSLRLSCAASGITFSINTMGWYRQAPGKQRELVALISSIGDTYYADSVKGRFTISRDNAKNTVYLQMNCLKPEDTAVYYCKRFRTAAQGTDYWGQGTQVTVSSHHHHHHLPETGGGASVSLLDDELMSL
B6 came in with an IC50 in the series with SKBR3 cells [1] (Table 7) of 1.34 nM. This IC50 is about 11-fold higher than that of the molecule before.

B7: Fused VHH8: anti-HER2 nanobody fused with P7, His6 tag after the peptide, SEQ ID NO: 40 (protein)
VHH: EVQLVESGGGLVQAGGSLRLSCAASGITFSINTMGWYRQAPGKQRELVALISSIGDTYYADSVKGRFTISRDNAKNTVYLQMNCLKPEDTAVYYCKRFRTAAQGTDYWGQGTQVTVSSLPETGGGSDEDLLHIHHHHHH
modifications: linker, P7 peptide, His6 tag
In the case of B7, the “internalization ability of nanobodies (mean cell fluorescence)” value with SKBR3 cells [2] is “no significant difference in the internalization ability between fused VHH7 and fused VHH8”. The “colocalization of nanobodies with lysosomes / lysosomal trafficking” value with SKBR3 cells [3] is reported as “No significant difference in lysosomal trafficking”.

B8: Fused VHH8-MMAF (conjugate)
VHH: EVQLVESGGGLVQAGGSLRLSCAASGITFSINTMGWYRQAPGKQRELVALISSIGDTYYADSVKGRFTISRDNAKNTVYLQMNCLKPEDTAVYYCKRFRTAAQGTDYWGQGTQVTVSSLPETGGGSDEDLLHIHHHHHH
Turning to B8, the “cytotoxicity in HER2-negative cells” value in the series on MDA-MB-231 cells is “none of the substances are cytotoxic”. The molecule further returned an IC50 with SKBR3 cells [1] (Table 7) of 0.319 nM.
